Test: soluble on expression in E. coli; label from the status in PepcDB or PDB records

Sequence | soluble on expression in E. coli
MKIVIAPDSYKESLSALEVATAIEQGFREIWPDADYLKLPLADGGEGTVEAMVEATAGRIVHVEVTGPLGHRVNAFYGLSGDARSAFIEMAAASGLEQVPPAQRDPLKTTSWGTGELIRHALDAGVEHIIIGIGGSATNDGGAGMVQALGARLRDAQGNDIAQGGIGLETLASIDISGLDKRLSACHIEVACDVTNPLTGKEGASAVFGPQKGATPEMIERLDTALTRYAHLIARDLHVDVLDLAGGGAAGGMGAALYAFCGAQLRRGIEIVTDALHLEACLADADLVITGEGRIDSQTIHGKVPIGVANIAKRYNKPVIGIAGSLTADVSVVHEHGLDAVFSVIYTICTLEDALKNASENVRMTARNVAATLKAGQQLR | not soluble
MGSDKIHHHHHHMNEQIIEDLSSPWSGNTVHLVTVDGSQLIKKQYRKKEGYLREVHALRTVPQAICPSLVDAYEQLTYEPLQKNIQAADLDEIIGSLLRELHQHTVQKPSVFDPGNGVTKETWLDYLESFAPNWLQTIGTEKYESMYWSAINSVRAAYDRNQRALCLIHRDARLANVGEGSDGRFLFLDFELAIIGDPLWDVARYLIQSVHSETTFLKAYEFDHTEIEVLQAYKKLYAMSFMNYLIKNKQADTLDFKKCVNVLTN | not soluble
MGEQQLDCALDLMRRLPPQHCDKNLTDLIDLCPHLVDDLLSTIDQPLKIAADRETGKQYLLCDYNRDGDSYRSPWSNTYDPPLEDGQLPSEKRRKMEIEANAAFESYRDLYFEGGVSSVYFWDLDNGGFAGIVLIKKEGDGAKNITGCWDSIHVIEITERARQAHYKLTSTIMLWLQTNKSSSGVMNLGGSLTRQHEMDAPINDQNTHLANMGRMIEDQESKMRLTINEIYFGKTKKVMSDLRSTEKQSELEKQDEIVRELNNAMANRGN | soluble
MSLEPVQDDSVSGNFYISGKYMPSASHFGVFSAKEEKNPTVALYGLKQDWNGVSASSHADADFNNKGYSFKYENNPFLGFAGAIGYSMGGPRIEFEVSYETFDVKNQGGNYKNDAHRYCALDRKASSTNATASHYVLLKNEGLLDISLMLNACYDVVSEGIPFSPYICAGVGTDLISMFEAINPKISYQGKLGLSYSINPEASVFVGGHFHKVAGNEFRDISTLKAFATPSSAATPDLATVTLSVCHFGVELGGRFNFEGHHHHHH | not soluble
MGSDKIHHHHHHMLDDHTQLEFPASGMTELPLIWQPQVIRCKAAGPGGRPLLVLLDTGTDPSAIDLTLARRLDLRLGDFALGSDATCDTVPFTETVLPWLRLGEVMLRNLYLMAVDLRQMPFPVDLVLGYNVLHRLNLTIDYAGQTVRLCHPDLAPPPPGAEGASVPLRFFEHFPALPAQIIAPSGATHDVILTIDTGSNGALTVSRDLAASLHLDLHTVQAATGHGFAAATPVSRGFTVDLQLGPFRLPAVEVDVPATSHGDLGRQGRANVGNRLLSRFRRLTLDYRREVCILDR | not soluble
MINKIFALPVIEQLTPVLSRRQLDDLDLIVVDHPQVKASFALQGAHLLSWKPVGEEEVLWLSNNTPFKTGVALRGGVPICWPWFGPAAQQGLPSHGFARNLPWALKAHNEDDNGVMLTFELQSSEATRKYWPHDFTLLARFKVGKTCEIELEAHGEFATTSALHSYFNVGDIANVKVSGLGDRFIDKVNDAKEGVLTDGIQTFPDRTDRVYLNPEACSVIHDATLNRTIDVVHHHHLNVVGWNPGPALSVSMGDMPDDGYKTFVCVETVYATAPQQATEEKPSRLAQTICVAKR | not soluble
MSANFTDKNGRQSKGVLLLRTLAMPSDTNANGDIFGGWIMSQMDMGGAILAKEIAHGRVVTVAVESMNFIKPISVGDVVCCYGQCLKVGRSSIKIKVEVWVKKVASEPIGERYCVTDAVFTFVAVDNNGRSRTIPRENNQELEKALALISEQPLLEHHHHHH | not soluble
MAHVVILGAGTGGMPAAYEMKEALGSGHEVTLISANDYFQFVPSNPWVGVGWKERDDIAFPIRHYVERKGIHFIAQSAEQIDAEAQNITLADGNTVHYDYLMIATGPKLAFENVPGSDPHEGPVQSICTVDHAERAFAEYQALLREPGPIVIGAMAGASAFGPAYEYAMIVASDLKKRGMRDKIPSFTFITSEPYIGHLGIQGVGDSKGILTKGLKEEGIEAYTNCKVTKVEDNKMYVTQVDEKGETIKEMVLPVKFGMMIPAFKGVPAVAGVEGLCNPGGFVLVDEHQRSKKYANIFAAGIAIAIPPVETTPVPTGAPKTGYMIESMVSAAVHNIKADLEGRKGEQTMGTWNAVCFADMGDRGAAFIALPQLKPRKVDVFAYGRWVHLAKVAFEKYFIRKMKMGVSEPFYEKVLFKMMGITRLKEEDTHRKAS | soluble
MSVNGAFSPCVVIPCYNHGAMMASVLVRLAPLALPVFIVDDGSDAATQHVLNLLAAENDGVTLIRLANNSGKGAAVMRGIEAVAQAGFSHALQVDADGQHQIEDAPLLLDEAKTHPDCLISGRPRYDDSVPKSRLYGRYVTHVWVWIETLSLSIKDSMCGFRVYPVAATVSLLSRKSLGRRMDFDTEIMVRLYWAGTPSRFIETAVTYPENGLSHFDALHDNLRISWMHTRLFFGMLPRIPVLLMRQRQQHWAGVSERKGLLGMRFMLAVYQRLGRGVFTLFLWPVIAFYWLTGRTARKASQSWLRQIGEYAHQQDILLPKPLNSYHHFLRFGQAMLDKIASWRGDLHWGRDIDFAPGAQEAIEHGRQKGQLILASHLGDIEVCRALAPQVSGLVINALVFTENSQRFKQVLEEIAPQAGVNLIPVSNIGPDTAIMLQQKLDAGEWVAIVGDRTAVHRQRGGVRRVVWSPFLGKEAPFPQGPFVLAAALRCPVLLMFVIREQKKLRVYCEPFADSITLPRPTRQQALQQVVDRYAERLAHYALKSPLDWFNFFDFWSLPDDDGRTAGKKESLEHHHHHH | not soluble
SVGREKELSIHFVPGSCRLVEEEVNIPNRRVLVTGATGLLGRAVHKEFQQNNWHAVGCGFRRARPKFEQVNLLDSNAVHHIIHDFQPHVIVHCAAERRPDVVENQPDAASQLNVDASGNLAKEAAAVGAFLIYISSDYVFDGTNPPYREEDIPAPLNLYGKTKLDGEKAVLENNLGAAVLRIPILYGEVEKLEESAVTVMFDKVQFSNKSANMDHWQQRFPTHVKDVATVCRQLAEKRMLDPSIKGTFHWSGNEQMTKYEMACAIADAFNLPSSHLRPITDSPVLGAQRPRNAQLDCSKLEILGIGQRTPFRIGIKESLWPFLIDKRWRQTVFH | soluble
MVGLSTGSWVKVLTSMPNLESITVVELNPAYVQLASSYPAMADLLKDNRVNIITDDGRRWLNKNPDQKFDLILMNTTFHWRNYATNLLSQQFLTVTKQHLTDNGFIYFNTTDALDAYKTSQAVFPHVYAYENMSLASLKPIAVPTTPEVHRALANLKWHDGRHIFNSPAEIAEGTARIVNTPLIPYKDIDFSPLKRPAKIITDTNMITEYKYGRLNTVINK | not soluble
MLTPRDENNEGDAMPMLKKPRYSSLSGQSTNITYQEHTISREERAAAVGRHEGFRGCTIWFTGLSGAGKTTISFALERTLNKLGIPCYGLDGDNIRHGLCKNLGFSKEDRQENIRRVAEVAKLFADSGMICLAAFISPFQEDRLDARKIHESENVKFIEVHVSTTLEVCEQRDPKQLYKKARAGQILGFTGIDSAYEPPENAEIILDAGKDGVQQCVQKVLDHLESKGLLPEQIPDVPAVRELFVSDDLTVAELLKESQNLPTVELTKVDLQWLQVLAEGWATPLSGFMRERQYLQSMHFGQLLDLKHKVAFVGEKSDDKEDSWPMMDDINQSIPIVLPISDDVKKGLEGVTRIALKYNGQVYAILSDPEIFEHRKDERVCRQFGTNDPRHPAVAQVLESGNWLLGGDVAVVQKIQFNDGLDKYRKTPNELRAIFAEKNADAVFAFQLRNPIHNGHALLMRDTREKLLAEHKNPILLLHPLGGWTKDDDVPLDIRIKQHEAVIAERVLDPEWTVLSIFPSPMMYAGPTEVQWHARSRIAAGIQHYIVGRDPAGIQKPGSPDALYETTHGAKVLSMAPGLSALHILPFRVAAYDKTAKKMSFFDTSRKEDFENISGTKMRGLARNGDTPPEGFMAPTAWEVLAGYYKSLQNSN | not soluble
MGSDKIHHHHHHMFEVFNYEDIICARGNREMPWKPSFQMNVYYYLIDGLLIDSGPYSLAKEAIEFFNAHIIEQVFLSHIHEDHAGMAYWLQEKMQIPIYLHEGSLEEARREPELAKYRLGIWGRRKAFNAEPINDTIKTGSYVFDVIDSPGHCPYHKVLHEKTKGWLFSGDLLNNLKPKSVMFDENTNDTILSIRKVLDLDFTTVFCAHTGIRKNAKNLFLKKLNYLLELQKDTQVLRNRGFSNTEIVEQLFPGPDPISSLSGGEFSSYYLVSTL | not soluble
MSLHLIPRPKSVINHEGEFFIERDTEIILSSELSFEDLNLAIMIQKEIEKVLDFKLNINKLFMDKKYSNSIILREFKFENEEEYKIEIKENQVIIEGFGAGLFYGCQSFRQLVREFGACIPNLTIEDSPYFKYRGFYHDVTRGMVPTLDTLKRLVDKAAFYKINQLQLYIEHTFAFKGMSEVWMDKDPLTAEEILILDKYCKERHVELVPSLSTFGHLYEALRSKSFRELCELEIGDEEYSFVDRMAHHTLDVTNPKSLDFVESMLLEFIPLFSSDKFNICCDETFDLGKGKSREKAEKLGVGKIYTEFLNKVYNIVKRFNKNVMFWGDIIVGYPELLSDIPEDLTCLTWNYHPQANDVATKIIAENNKVQYVCPGVGGWNMMMNLIEGSFSNIRRMVNHGMKYGAIGVLNTNWGDYGNINLLANSMPSMIYGAGISWNPKEEEFNEIFKSISLMEFGDESMKVVSLMDKLSKNQVAGWGELVRWKEKFNEREETKEEIKNIDTLKVFEGYKVASEVRREFIKLLKNTEDKEAIQSFIVSSKGWELIDKFFMVLLEREFNKKSLLDIDKKDLAKDLELWFYDYTSIWRKYNKESELNRIREVIVYMCSYLRGEGHHHHHH | soluble
MAHHHHHHMFNNDPLQKYDKELFDLLEKEKNRQIETINLIASENLTNTAVRECLGDRISNKYSEGYPHKRYYGGNDYVDKIEELCYKRALEAFNVSEEEWGVNVQPLSGSAANVQALYALVGVKGKIMGMHLCSGGHLTHGFFDEKKKVSITSDLFESKLYKCNSEGYVDMESVRNLALSFQPKVIICGYTSYPRDIDYKGFREICDEVNAYLFADISHISSFVACNLLNNPFTYADVVTTTTHKILRGPRSALIFFNKKRNPGIDQKINSSVFPSFQGGPHNNKIAAVACQLKEVNTPFFKEYTKQVLLNSKALAECLLKRNLDLVTNGTDNHLIVVDLRKYNITGSKLQETCNAINIALNKNTIPSDVDCVSPSGIRIGTPALTTRGCKEKDMEFIADMLLKAILLTDELQQKYGKKLVDFKKGLVNNPKIDELKKEVVQWAKNLPFA | soluble
MGSDKIHHHHHHMFAITGITGQVGGVVARALLAAGKDVRAVVRSAAKGAQWKEQGCEIAVAEMSDTQALSGAFSGVDGVFILLPPNFDPSPDFAESRHLVGTLRDALKQANPPKVVCLSTIGAQAAQPNLLQQLGYMEQQLGSLPMPIAFLRAGWFIENAAWDVEPARTAGVIPSFLQPLDKPVPMVATADVGRVAASMLQQAWTGKRIVELEGPRRITPNDLANTFARLLGKDVRMETVPRDTWEALFKSQGMKNPVPRMQMLDGFNEGWIEFETPDQTIKGNVTLETVLQSLIERVG | not soluble
MTVSRFLRNPEQVSVALRGKIAAALDELGYIPNRAPDILSNATSRAIGVLLPSLTNQVFAEVLRGIESVTDAHGYQTMLAHYGYKPEMEQERLESMLSWNIDGLILTERTHTPRTLKMIEVAGIPVVELMDSQSPCLDIAVGFDNFEAARQMTTAIIARGHRHIAYLGARLDERTIIKQKGYEQAMLDAGLVPYSVMVEQSSSYSSGIELIRQARREYPQLDGVFCTNDDLAVGAAFECQRLGLKVPDDMAIAGFHGHDIGQVMEPRLASVLTPRERMGSIGAERLLARIRGESVTPKMLDLGFTLSPGGSI | not soluble
GMEPSAKHLQLQTLLSERHAYLMEGNREAMHQLLSSDFSFIDGQGRQFDAETYLDHYVDPDQIQWSNQISESMVVEVFETTALVQEIVEDHFSYGRSMYIGRFRSVSLYHWANEGWKWHFHQLTPLDPS | soluble
